Test [1] deals with T1, MET567 (human, UniProt P08581 25-567). The experiment in a line: SEC-SAXS. In general terms: Size exclusion chromatography separates by hydrodynamic size, large species first.
Test [2] concerns the target T1, MET567. The experiment in a line: SPR.

T1 sequence (P08581 25-567): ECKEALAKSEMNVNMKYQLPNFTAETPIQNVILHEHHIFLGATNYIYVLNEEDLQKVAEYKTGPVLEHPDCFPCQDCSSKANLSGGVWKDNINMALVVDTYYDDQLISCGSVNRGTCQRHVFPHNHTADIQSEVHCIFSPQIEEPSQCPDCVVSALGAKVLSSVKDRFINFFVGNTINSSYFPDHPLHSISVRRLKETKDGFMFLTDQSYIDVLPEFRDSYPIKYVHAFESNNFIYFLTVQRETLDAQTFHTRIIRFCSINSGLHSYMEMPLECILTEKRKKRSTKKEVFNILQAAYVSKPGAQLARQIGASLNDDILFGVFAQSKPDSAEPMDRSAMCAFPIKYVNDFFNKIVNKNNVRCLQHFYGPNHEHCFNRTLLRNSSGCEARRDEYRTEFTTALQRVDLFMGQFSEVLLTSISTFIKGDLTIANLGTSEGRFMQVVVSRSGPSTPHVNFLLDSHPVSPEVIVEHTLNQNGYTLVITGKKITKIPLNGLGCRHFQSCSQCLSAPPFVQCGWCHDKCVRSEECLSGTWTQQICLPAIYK

By stoichiometry N is commonly meant a count of units in the complex or per binding partner. The term Kd denotes the free concentration of one partner at which half of the binding sites on the other are occupied at equilibrium, for simple one-to-one binding. Low values mean tighter binding, high ones weaker binding. Turning to “K1K1 (from UniProt P14210 128-206) (ligand)”, the stoichiometry N with MET567 [1] was 1 K1K1:MET567. This molecule also registered an equilibrium dissociation constant (Kd) in the test with MET567 [2] of 205 nM.

B1: NK1 (domain or fragment, human, UniProt P14210 28-209, looked up)
chain: YAEGQRKRRNTIHEFKKSAKTTLIKIDPALKIKTKKVNTADQCANRCTRNKGLPFTCKAFVFDKARKQCLWFPFNSMSSGVKKEFGHEFDLYENKDYIRNCIIGKGRSYKGTVSITKSGIKCQPWSSMIPHEHSFLPSSYRGKDLQENYCRNPRGEEGGPWCFTSNPEVRYEVCDIPQCSEV
Molecule B1 had a dissociation constant (Kd) with MET567 [2] of 200 nM.
